US20160060347A1 (MorphoSys, published 2016)

Legend:
[1] = molecular target: T1, hu_CXCR2_N-term (1-17)-BSA (human; bovine, coupled to carrier protein BSA; C-terminal cysteine introduced to enable coupling); assay: ELISA, coated peptide-BSA, IgG1
T1 construct: Synthetic linear peptide chemically coupled to the carrier; also called CXCR2_aa1-17_BSA; CXCR2 aa1-17 BSA
Protocol: (§1) 384-well Maxisorp plates (Nunc; Cat. #460518) were coated with respective CXCR2 and control peptides coupled either to BSA or Transferrin (TRF) at 1-5 μg/mL and incubated o/n at 4° C. […] After three washing steps, antibodies were added at 5-10 μg/mL and titrated in some experiments. Antibodies were incubated 1 h at room temperature and plates were subsequently washed. Binding of anti-CXCR2 antibodies was detected by using alkaline phosphatase-conjugated anti-human IgG, (Dianova, Cat #109-055-097). AttoPhos fluorescence substrate (Roche, Cat #1484281) was added according to instructions of the manufacturer and fluorescence was measured (excitation at 430 nm, emission at 535 nm) using a microplate reader.

[2] = molecular target: T2, N-terminal peptide aa1-48, BSA-coupled (human; bovine, coupled to carrier protein BSA; C-terminal cysteine introduced to enable coupling); assay: ELISA, coated peptide-BSA, IgG1
T2 construct: also called CXCR2 aa1-48 BSA
Protocol: as §1
Target sequence in this assay (P02769 25-607 limits assumed): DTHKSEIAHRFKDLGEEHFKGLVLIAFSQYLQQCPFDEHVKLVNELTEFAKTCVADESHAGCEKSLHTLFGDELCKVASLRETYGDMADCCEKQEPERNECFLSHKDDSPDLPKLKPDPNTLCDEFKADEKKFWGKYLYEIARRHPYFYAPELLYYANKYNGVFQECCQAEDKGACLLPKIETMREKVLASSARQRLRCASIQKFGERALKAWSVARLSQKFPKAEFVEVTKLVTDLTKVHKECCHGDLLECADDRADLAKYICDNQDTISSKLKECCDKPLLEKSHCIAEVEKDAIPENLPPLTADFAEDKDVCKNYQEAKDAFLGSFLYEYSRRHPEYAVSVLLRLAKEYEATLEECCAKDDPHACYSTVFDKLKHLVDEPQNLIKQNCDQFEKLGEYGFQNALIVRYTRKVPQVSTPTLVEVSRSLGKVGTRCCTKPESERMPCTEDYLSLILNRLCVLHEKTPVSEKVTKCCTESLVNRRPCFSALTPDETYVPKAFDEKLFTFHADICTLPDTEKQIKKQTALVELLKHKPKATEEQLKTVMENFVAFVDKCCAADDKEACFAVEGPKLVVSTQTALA

human CXCR2 [3] = molecular target: T3, human CXCR2 (human, UniProt P25025 1-360); assay: FACS, CXCR2 CHO Flp-In cells, IgG1
T3 construct: Expressed on Flp-In CHO cells (FACS, Fab-ZAP, ADCC, CDC) or on bought PathHunter CHO cells (beta-arrestin assay); the construct in the PathHunter cells is not described; also called chemokine receptor CXCR2; CXCR2 CHO Flp-In cells
T3 sequence: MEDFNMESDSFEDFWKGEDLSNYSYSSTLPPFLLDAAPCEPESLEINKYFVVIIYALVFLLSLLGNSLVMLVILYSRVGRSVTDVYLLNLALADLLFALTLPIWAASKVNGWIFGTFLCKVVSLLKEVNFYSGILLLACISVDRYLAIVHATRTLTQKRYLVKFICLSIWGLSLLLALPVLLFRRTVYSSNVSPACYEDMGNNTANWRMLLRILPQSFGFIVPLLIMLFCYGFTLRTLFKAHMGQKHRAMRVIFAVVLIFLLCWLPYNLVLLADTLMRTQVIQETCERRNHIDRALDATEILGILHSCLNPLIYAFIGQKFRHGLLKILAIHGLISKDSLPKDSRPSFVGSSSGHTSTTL
Protocol: (§2) Human CXCR2-expressing Flp-In™ CHO cells were harvested at ˜80% confluence washed once with PBS (Gibco, Cat #14190-094) and detached using Versene (Invitrogen, Cat #15040-033). Subsequently, cells were counted and centrifuged at 250×g for 5 min at 4° C. Afterwards, cells were diluted in Superblock (Thermo Fisher Perbio Science, Cat #37515) to a cell concentration of 2E+05-1E+06/mL and 100 μL/well were transferred to 96-well microtiter plate (Nunc, Cat#163320). Cells were once centrifuged, supernatant discarded and antibodies added at 1 μg/mL (unless stated otherwise), incubated for 1 h at 4° C. and washed twice with FACS buffer (PBS/3% FCS/0.02% NaN3). Binding of anti-CXCR2 antibodies was detected by incubation of Phycoerythrin-conjugated anti-human IgG (Dianova, Cat #109-116-097) for 1 h at 4° C. Samples were subsequently measured using FACS Array (Becton Dickinson).

[4] = molecular target: T1, hu_CXCR2_N-term (1-17)-BSA; assay: ELISA, coated peptide-BSA, Fab
Protocol: as §1

[5] = molecular target: T2, N-terminal peptide aa1-48, BSA-coupled; assay: ELISA, coated peptide-BSA, Fab
Protocol: as §1

[6] = molecular target: T4, ECL3 peptide aa273-295, BSA-coupled (human; bovine, coupled to carrier protein BSA; C-terminal cysteine introduced to enable coupling); assay: ELISA, coated peptide-BSA, Fab
T4 construct: also called CXCR2 aa273-295 BSA; peptides representing the extracellular domain 3
Protocol: as §1

human CXCR2 [7] = molecular target: T3, human CXCR2; assay: FACS, CXCR2 CHO Flp-In cells, Fab
Protocol: as §2

Measured: binding result

T4 sequence (peptide, as listed by the source limits assumed, chain 1 of 2): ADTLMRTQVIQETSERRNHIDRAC
T4 sequence (P02769 25-607 limits assumed, chain 2 of 2): as the sequence (P02769 25-607 limits assumed) above
T1 sequence (P02769 25-607 limits assumed): as above

B1: CX2-Mab #1.1 (antibody, IgG1, V domains shown)
VH: QVQLVQSGAEVKKPGSSVKVSCKASGGTFSSYAISWVRQAPGQGLEWMGGIIPIVGEAKYAQKFQGRVTITADESTSTAYMELSSLRSEDTAVYYCARDSSGYDGYYAFAYWGQGTQVTVSS
VL: DIVLTQPPSVSGAPGQRGTISCSGSSSNIGSSSVNWYQQLPGTAPKLLIYRNNQRPSGVPDRFSGSKSGTSASLAITGLQAEDEADYYCGSTDMSTNSIVFGGGTKLTVLG
binds: [1] | [2] | human CXCR2 [3]

B2: CX2-Mab #1.3 (antibody, IgG1, V domains shown)
VH: QVQLVQSGAEVKKPGSSVKVSCKASGGTFSSYAISWVRQAPGQGLEWMGGIIPIVGEAKYAQKFQGRVTITADESTSTAYMELSSLRSEDTAVYYCARDSSGYDGYYAFAYWGQGTQVTVSS
VL: DIVLTQPPSVSGAPGQRGTISCSGSSSNIGSSSVNWYQQLPGTAPKLLIYRNNQRPSGVPDRFSGSKSGTSASLAITGLQAEDEADYYCAVTTKPQGIVFGGGTKLTVLG
binds: [1] | [2] | human CXCR2 [3]

B3: CX2-Mab #1.6 (antibody, IgG1, V domains shown)
VH: QVQLVQSGAEVKKPGSSVKVSCKASGGTFSSYAISWVRQAPGQGLEWMGGIIPIVGEAKYAQKFQGRVTITADESTSTAYMELSSLRSEDTAVYYCARDSSGYDGYYAFAYWGQGTQVTVSS
VL: DIVLTQPPSVSGAPGQRGTISCSGSSSNIGSSSVNWYQQLPGTAPKLLIYRNNQRPSGVPDRFSGSKSGTSASLAITGLQAEDEADYYCASRDHFSHGLVFGGGTKLTVLG
binds: [1] | [2] | human CXCR2 [3]

B4: CX2-Mab #1.4 (antibody, IgG1, V domains shown)
VH: QVQLVQSGAEVKKPGSSVKVSCKASGGTFSSYAISWVRQAPGQGLEWMGGIIPIVGEAKYAQKFQGRVTITADESTSTAYMELSSLRSEDTAVYYCARDSSGYDGYYAFAYWGQGTQVTVSS
VL: DIVLTQPPSVSGAPGQRGTISCSGSSSNIGSSSVNWYQQLPGTAPKLLIYRNNQRPSGVPDRFSGSKSGTSASLAITGLQAEDEADYYCASTDISRVIVFGGGTKLTVLG
binds: [1] | [2] | human CXCR2 [3]

B5: CX2-Mab #15 (Fab, V domains shown)
VH: EVQLLESGGGLVQPGGSLRLSCAASGFTFSRYWMSWVRQAPGKGLEWVSVISYSGSETYYADSVKGRFTISRDNSKNTLYLQMNSLRAEDTAVYYCARGRAYGYFDPWGQGTLVTVSS
VL: DIVLTQPPSVSGAPGQRVTISCSGSSSNIGKKTVSWYQQLPGTAPKLLIYRNNQRPSGVPDRFSGSKSGTSASLAITGLQAEDEADYYCGSTTSSHLYVFGGGTKLTVLG
binds: [4] | [5] | [6] | human CXCR2 [7]

B6: CX2-Mab #10 (Fab, V domains shown)
VH: EVQLLESGGGLVQPGGSLRLSCAASGFTFSRYWMSWVRQAPGKGLEWVSVISYSGSETYYADSVKGRFTISRDNSKNTLYLQMNSLRAEDTAVYYCARGRAYGYFDPWGQGTLVTVSS
VL: DIVLTQPPSVSGAPGQRVTISCSGSSSNIGKKTVSWYQQLPGTAPKLLIYRNNQRPSGVPDRFSGSKSGTSASLAITGLQAEDEADYYCSSTTSSSRSVVFGGGTKLTVLG
binds: [4] | [5] | [6] | human CXCR2 [7]

B7: CX2-Mab #16 (Fab, V domains shown)
VH: EVQLLESGGGLVQPGGSLRLSCAASGFTFSRYWMSWVRQAPGKGLEWVSVISYSGSETYYADSVKGRFTISRDNSKNTLYLQMNSLRAEDTAVYYCARGRAYGYFDPWGQGTLVTVSS
VL: DIVLTQPPSVSGAPGQRVTISCSGSSSNIGKKTVSWYQQLPGTAPKLLIYRNNQRPSGVPDRFSGSKSGTSASLAITGLQAEDEADYYCGSTGYRGLYVFGGGTKLTVLG
binds: [4] | [5] | [6] | human CXCR2 [7]

B8: CX2-Mab #14 (Fab, V domains shown)
VH: QVQLQQSGPGLVKPSQTLSLTCAISGDSVSSNSAAWNWIRQSPSRGLEWLGRIYYRSKWYNDYAVSVKSRITINPDTSKNQFSLQLNSVTPEDTAVYYCARDVPYYSDYSHYVYYYGAWFDVWGQGTLVTVSS
VL: DIELTQPPSVSVSPGQTASITCSGDSIPYNYAHWYQQKPGQAPVLVIYDDSDRPSGIPERFSGSNSGNTATLTISGTQAEDEADYYCGAYDKKWVVFGGGTKLTVLG
binds: [5] | human CXCR2 [7]

B9: CX2-Mab #4.1 (antibody, IgG1, V domains shown)
VH: QVQLVQSGAEVKKPGSSVKVSCKASGGTFSSYAISWVRQAPGQGLEWMGHIPPNEGTPWYAQKFQGRVTITADESTSTAYMELSSLRSEDTAVYYCARGYGFDVWGQGTLVTVSS
VL: DIVLTQPPSVSGAPGQRVTISCSGSSSNIGVNIVNWYQQLPGTAPKLLIYSTSNRPSGVPDRFSGSKSGTSASLAITGLQAEDEADYYCATRDGISKSVVFGGGTKLTVLG
binds: [1] | [2] | human CXCR2 [3]

B10: CX2-Mab #4.2 (antibody, IgG1, V domains shown)
VH: QVQLLESGGGLVQPGGSLRLSCAASGFTFSSNGMSWVRQAPGKGLEWVSAISSSGSKTYYADSVKGRFTISRDNSKNTLYLQMNSLRAEDTAVYYCARGYGFDVWGQGTLVTVSS
VL: DIVLTQPPSVSGAPGQRVTISCSGSSSNIGVNIVNWYQQLPGTAPKLLIYSTSNRPSGVPDRFSGSKSGTSASLAITGLQAEDEADYYCGTYDVQSHQMVFGGGTKLTVLG
binds: [1] | [2] | human CXCR2 [3]

B11: CX2-Mab #3.2 (antibody, IgG1, V domains shown)
VH: QVQLLESGGGLVQPGGSLRLSCAASGFTFSSYAMSWVRQAPGKGLEWVSLISQGGLTYYADSVKGRFTISRDNSKNTLYLQMNSLRAEDTAVYYCARGRVGYAFDYWGQGTLVTVSS
VL: DIVLTQPPSVSGAPGQRVTISCSGSSSNIGVNYVNWYQQLPGTAPKLLIYSNNQRPSGVPDRFSGSKSGTSASLAITGLQAEDEADYYCQSRASGFYSVVFGGGTKLTVLG
binds: [1] | [2] | human CXCR2 [3]

B12: CX2-Mab #11 (Fab, V domains shown)
VH: QVQLVQSGAEVKKPGSSVKVSCKASGGTFTDYAISWVRQAPGQGLEWMGGIIPIFGTANYAQKFQGRVTITADESTSTAYMELSSLRSEDTAVYYCARHSYSFDYWGQGTLVTVSS
VL: DIELTQPPSVSVSPGQTASITCSGDNLRKKYAYWYQQKPGQAPVLVIGSKSNRPSGIPERFSGSNSGNTATLTISGTQAEDEADYYCQSYDSGRVVFGGGTKLTVLG
binds: [5] | human CXCR2 [7]
